For assay [1], the target named is T1, human APJ receptor (human, UniProt P35414 1-380).
T1 sequence (looked up): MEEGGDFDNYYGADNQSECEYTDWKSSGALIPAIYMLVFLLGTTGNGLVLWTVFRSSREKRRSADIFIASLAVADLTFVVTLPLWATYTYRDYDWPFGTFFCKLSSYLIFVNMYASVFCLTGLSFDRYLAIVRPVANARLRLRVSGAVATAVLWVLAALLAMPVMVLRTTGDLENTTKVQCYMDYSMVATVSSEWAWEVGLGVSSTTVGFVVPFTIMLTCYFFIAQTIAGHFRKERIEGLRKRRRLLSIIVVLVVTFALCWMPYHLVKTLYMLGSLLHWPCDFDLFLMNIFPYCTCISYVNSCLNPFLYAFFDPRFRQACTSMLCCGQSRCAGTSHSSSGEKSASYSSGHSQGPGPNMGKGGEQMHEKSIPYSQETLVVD
Briefly: cell-based or functional assay.

Assay [2] addresses T2, rat APJ receptor (rat, UniProt Q9JHG3 1-377).
T2 sequence (looked up): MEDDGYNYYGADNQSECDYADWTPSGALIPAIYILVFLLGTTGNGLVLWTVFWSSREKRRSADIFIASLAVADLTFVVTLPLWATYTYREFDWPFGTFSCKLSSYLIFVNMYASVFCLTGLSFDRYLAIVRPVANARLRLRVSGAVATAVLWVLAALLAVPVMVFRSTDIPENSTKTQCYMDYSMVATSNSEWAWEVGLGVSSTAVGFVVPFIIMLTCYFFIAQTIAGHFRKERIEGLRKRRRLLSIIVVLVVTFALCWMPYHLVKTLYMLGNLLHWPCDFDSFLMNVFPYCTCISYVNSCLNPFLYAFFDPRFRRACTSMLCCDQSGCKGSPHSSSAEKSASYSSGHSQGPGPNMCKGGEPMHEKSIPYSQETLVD
Kind of assay: cell-based or functional assay.

Starred links: 1 amine or outer side, 2 acyl side, 3 side chain; linkers in the order of their positions; H or OH if unused. Non-standard residues stand in square brackets, D forms with d. Primed or numbered codes have the meaning given here. No end group written: not given here. *: point of attachment. Pra′ = its azide, alkyne or alkene has reacted where a group follows in round brackets; Atz = 3-(1,2,3-triazol-4-yl)alanine, O=C([C@H](Cc1c[nH]nn1)N[*:1])[*:2]; Propanoyl(3-triazol-4-yl) = O=C(CCc1cn([*:1])nn1)[*:2]; PEG12 = NCCOCCOCCOCCOCCOCCOCCOCCOCCOCCOCCOCCOCCC(=O)O; dBip = N[C@H](Cc1ccc(-c2ccccc2)cc1)C(=O)O; Oic = O=C(O)[C@@H]1C[C@@H]2CCCC[C@@H]2N1; Phe(4-Cl) = N[C@@H](Cc1ccc(Cl)cc1)C(=O)O; dPhe(4-Cl) = N[C@H](Cc1ccc(Cl)cc1)C(=O)O; Phe(4-I) = N[C@@H](Cc1ccc(I)cc1)C(=O)O; γGlu = O=C(O)[C@H](CCC(=O)[*:2])N[*:1]; d1Nal = N[C@H](Cc1cccc2ccccc12)C(=O)O; NMeR = CN[C@@H](CCCNC(=N)N)C(=O)O; Tridecanoyl = CCCCCCCCCCCCC(=O)*; hArg = N=C(N)NCCCC[C@H](N)C(=O)O; Cha = N[C@@H](CC1CCCCC1)C(=O)O; NMeL = CN[C@@H](CC(C)C)C(=O)O; Nle = CCCC[C@H](N)C(=O)O; Orn = NCCC[C@H](N)C(=O)O; AEEA = NCCOCCOCC(=O)O; Mpa = O=C(O)CCS

B1: apelin polypeptide SEQ ID NO: 173 (peptide)
peptide: Tridecanoyl-[γGlu][AEEA][AEEA][dR]Q[hArg]P[dR][NMeL]SHKG[Oic][Phe(4-I)][dBip]-OH
SMILES: CCCCCCCCCCCCC(=O)N[C@@H](CCC(=O)NCCOCCOCC(=O)NCCOCCOCC(=O)N[C@H](CCCNC(=N)N)C(=O)N[C@@H](CCC(N)=O)C(=O)N[C@@H](CCCCNC(=N)N)C(=O)N1CCC[C@H]1C(=O)N[C@H](CCCNC(=N)N)C(=O)N(C)[C@@H](CC(C)C)C(=O)N[C@@H](CO)C(=O)N[C@@H](Cc1c[nH]cn1)C(=O)N[C@@H](CCCCN)C(=O)NCC(=O)N1[C@H](C(=O)N[C@@H](Cc2ccc(I)cc2)C(=O)N[C@H](Cc2ccc(-c3ccccc3)cc2)C(=O)O)C[C@@H]2CCCC[C@@H]21)C(=O)O
For B1, in assay [1], the “EC50 Human APJ Receptor” value worked out at 1.66 nM. Moreover, the “EC50 Rat APJ Receptor” value in assay [2] is 13.7 nM.
Turning to Ac-[Atz](20K‑mPEG)LRP[hArg][Cha]SHKG[Oic][Nle]P[Phe(4-Cl)]-OH [apelin polypeptide SEQ ID NO: 106], in assay [1], the “EC50 Human APJ Receptor” value worked out at 3.22 nM. The “EC50 Rat APJ Receptor” value in assay [2] came to 47.3 nM.
Consider Ac-[Atz](20K‑mPEG)KFRRQRP[hArg][Cha]SHKG[Oic][Nle]P[Phe(4-Cl)]-OH [apelin polypeptide SEQ ID NO: 105], for which the “EC50 Human APJ Receptor” value in assay [1] is 0.187 nM. In addition, the “EC50 Rat APJ Receptor” value in assay [2] came out at 0.285 nM.

B2: apelin polypeptide SEQ ID NO: 153 (peptide)
peptide: Tridecanoyl-[γGlu][AEEA][AEEA][dR]Q[hArg]P[dR][NMeL]SHKG[Oic][Phe(4-I)]P[Oic]-OH
SMILES: CCCCCCCCCCCCC(=O)N[C@@H](CCC(=O)NCCOCCOCC(=O)NCCOCCOCC(=O)N[C@H](CCCNC(=N)N)C(=O)N[C@@H](CCC(N)=O)C(=O)N[C@@H](CCCCNC(=N)N)C(=O)N1CCC[C@H]1C(=O)N[C@H](CCCNC(=N)N)C(=O)N(C)[C@@H](CC(C)C)C(=O)N[C@@H](CO)C(=O)N[C@@H](Cc1c[nH]cn1)C(=O)N[C@@H](CCCCN)C(=O)NCC(=O)N1[C@H](C(=O)N[C@@H](Cc2ccc(I)cc2)C(=O)N2CCC[C@H]2C(=O)N2[C@H](C(=O)O)C[C@@H]3CCCC[C@@H]32)C[C@@H]2CCCC[C@@H]21)C(=O)O
For B2, in assay [1], the “EC50 Human APJ Receptor” value was found to be 3.75 nM. The “EC50 Rat APJ Receptor” value in assay [2] worked out at 72 nM.

B3: apelin polypeptide SEQ ID NO: 155 (peptide)
peptide: Tridecanoyl-[γGlu][AEEA][AEEA][dR]Q[hArg]P[dR][NMeL]SHKG[Oic][Phe(4-I)]P[d1Nal]-OH
SMILES: CCCCCCCCCCCCC(=O)N[C@@H](CCC(=O)NCCOCCOCC(=O)NCCOCCOCC(=O)N[C@H](CCCNC(=N)N)C(=O)N[C@@H](CCC(N)=O)C(=O)N[C@@H](CCCCNC(=N)N)C(=O)N1CCC[C@H]1C(=O)N[C@H](CCCNC(=N)N)C(=O)N(C)[C@@H](CC(C)C)C(=O)N[C@@H](CO)C(=O)N[C@@H](Cc1c[nH]cn1)C(=O)N[C@@H](CCCCN)C(=O)NCC(=O)N1[C@H](C(=O)N[C@@H](Cc2ccc(I)cc2)C(=O)N2CCC[C@H]2C(=O)N[C@H](Cc2cccc3ccccc23)C(=O)O)C[C@@H]2CCCC[C@@H]21)C(=O)O
Take B3: in assay [1], the “EC50 Human APJ Receptor” value turned out to be 8.62 nM. In assay [2], the “EC50 Rat APJ Receptor” value is 49.6 nM.
Taken in the same sequence, the figures for Ac-[Pra′](20K‑mPEGReg)[Orn]F[hArg][hArg]QRP[hArg][NMeL]SHKG[Oic][Phe(4-I)]P[dBip]-OH [apelin polypeptide SEQ ID NO: 107] were 10.5 nM and 10 nM.

B4: apelin polypeptide SEQ ID NO: 126 (peptide)
peptide: Tridecanoyl-[γGlu][AEEA][AEEA][dQ][hArg]P[NMeR][Cha]SHKG[Oic][Nle]P[dF]-OH
SMILES: CCCCCCCCCCCCC(=O)N[C@@H](CCC(=O)NCCOCCOCC(=O)NCCOCCOCC(=O)N[C@H](CCC(N)=O)C(=O)N[C@@H](CCCCNC(=N)N)C(=O)N1CCC[C@H]1C(=O)N(C)[C@@H](CCCNC(=N)N)C(=O)N[C@@H](CC1CCCCC1)C(=O)N[C@@H](CO)C(=O)N[C@@H](Cc1c[nH]cn1)C(=O)N[C@@H](CCCCN)C(=O)NCC(=O)N1[C@H](C(=O)N[C@@H](CCCC)C(=O)N2CCC[C@H]2C(=O)N[C@H](Cc2ccccc2)C(=O)O)C[C@@H]2CCCC[C@@H]21)C(=O)O
Regarding B4, in assay [1], the “EC50 Human APJ Receptor” value was 11 nM. For the same molecule, the “EC50 Rat APJ Receptor” value in assay [2] is 56.2 nM.
In the same order, the values of [PEG12]KFRRQRP[hArg][Cha]SHKG[Oic][Nle]P[Phe(4-Cl)]-OH (also: PEG-apelin peptide conjugate) [apelin polypeptide SEQ ID NO: 102] are 0.083 nM and 0.18 nM.

B5: apelin polypeptide SEQ ID NO: 154 (peptide)
peptide: Tridecanoyl-[γGlu][AEEA][AEEA][dR]Q[hArg]P[dR][NMeL]SHKG[Oic][Phe(4-I)]P[dPhe(4-Cl)]-OH
SMILES: CCCCCCCCCCCCC(=O)N[C@@H](CCC(=O)NCCOCCOCC(=O)NCCOCCOCC(=O)N[C@H](CCCNC(=N)N)C(=O)N[C@@H](CCC(N)=O)C(=O)N[C@@H](CCCCNC(=N)N)C(=O)N1CCC[C@H]1C(=O)N[C@H](CCCNC(=N)N)C(=O)N(C)[C@@H](CC(C)C)C(=O)N[C@@H](CO)C(=O)N[C@@H](Cc1c[nH]cn1)C(=O)N[C@@H](CCCCN)C(=O)NCC(=O)N1[C@H](C(=O)N[C@@H](Cc2ccc(I)cc2)C(=O)N2CCC[C@H]2C(=O)N[C@H](Cc2ccc(Cl)cc2)C(=O)O)C[C@@H]2CCCC[C@@H]21)C(=O)O
Take B5: in assay [1], the “EC50 Human APJ Receptor” value turned out to be 4.54 nM. In addition, in assay [2], the “EC50 Rat APJ Receptor” value is 40.5 nM.
In the same order, the values of {20K‑mPEGReg-Propanoyl(3-triazol-4-yl)}-[hArg]RQ[hArg]PR[NMeL]SHKG[Oic][Phe(4-I)]P[dBip]-OH (also: 20 kDa PEG conjugate) [apelin polypeptide SEQ ID NO: 104] are 18.9 nM and 45 nM.

B6: apelin polypeptide SEQ ID NO: 149 (peptide)
peptide: Tridecanoyl-[γGlu][AEEA][AEEA][hArg][dQ][hArg]P[NMeR][Cha]SHKG[Oic][Nle]P[dF]-OH
SMILES: CCCCCCCCCCCCC(=O)N[C@@H](CCC(=O)NCCOCCOCC(=O)NCCOCCOCC(=O)N[C@@H](CCCCNC(=N)N)C(=O)N[C@H](CCC(N)=O)C(=O)N[C@@H](CCCCNC(=N)N)C(=O)N1CCC[C@H]1C(=O)N(C)[C@@H](CCCNC(=N)N)C(=O)N[C@@H](CC1CCCCC1)C(=O)N[C@@H](CO)C(=O)N[C@@H](Cc1c[nH]cn1)C(=O)N[C@@H](CCCCN)C(=O)NCC(=O)N1[C@H](C(=O)N[C@@H](CCCC)C(=O)N2CCC[C@H]2C(=O)N[C@H](Cc2ccccc2)C(=O)O)C[C@@H]2CCCC[C@@H]21)C(=O)O
Consider B6, for which the “EC50 Human APJ Receptor” value in assay [1] came to 3.19 nM. Also, in assay [2], the “EC50 Rat APJ Receptor” value was 9.99 nM.
For the molecule {20K mPEGacetamide}-[Mpa]QRP[hArg][Cha]SHKG[Oic][Nle]P[Phe(4-Cl)]-OH (numbers in words are those of the source; also: 20 kDa PEG conjugate) [apelin polypeptide SEQ ID NO: 101], in assay [1], the “EC50 Human APJ Receptor” value worked out at 46.7 nM. For the same molecule, in assay [2], the “EC50 Rat APJ Receptor” value came to 150 nM.
Taken in the same sequence, the figures for {20K‑mPEGReg-Propanoyl(3-triazol-4-yl)}-[hArg][dR]Q[hArg]P[dR][NMeL]SHKG[Oic][Phe(4-I)]P[dBip]-OH (also: 20 kDa PEG conjugate) [apelin polypeptide SEQ ID NO: 103] were 34.2 nM and 52.2 nM.

These data come from US10941182 (Amgen, dated 2021).
